Here are results for one molecule from publication PMC5814282, “Biophysical studies and NMR structure of YAP2 WW domain - LATS1 PPxY motif complexes reveal the basis of their interaction” (Oncotarget, 2018).

Assay [1] concerns the target WW12 (YAP2, both WW domains). The assay is described as follows: ITC, WW12 versus PY12. It counts as binding, human. As to conditions: 25°C, 2 mM DTT, 2 mM EDTA. The procedure:
ITC experiments were performed using the MicroCal VP-ITC titration calorimeter (MicroCal-Malvern). […] The proteins and peptides used were prepared in the same buffer containing 20 mM Tris-HCl pH 7.0 and 100 mM NaCl. Protein concentrations varying from 20 to 70 μM were titrated against peptide concentrations ranging from 0.5 to 1.8 mM at 25°C. The peptide samples were also injected into buffer as a reference to estimate the heat of dilution. In the case of WW12 vs PY12, the buffer used was 20 mM Tris-HCl pH 7.0, 100 mM NaCl, 3% glycerol, 2 mM DTT and 2 mM EDTA. All samples were degassed and spun before the experiment. The binding isotherms were analyzed employing a model that considered a single ligand binding site implemented in Origin 7 (OriginLab).

The next assay deals with WW12. Nature of the assay: Co-expression, affinity and gel filtration chromatography of WW12-PY12. It is filed as binding, human. As to conditions: WW12 and PY12 co-expressed in E. coli. On the procedure: Cells were harvested by spinning at 4,000 g for 20 min and lysed by sonication in buffer containing 50 mM Tris-HCl pH 7.0, 200 mM NaCl, 5% glycerol, 2 mM DTT, 0.5% Triton X-100 and 1mM PMSF. […] The GST tag was cleaved overnight using PreScission Protease. In the case of WW12-PY12 complex, an additional Ni-NTA chromatography step was performed, as PY12 contained a His-tag. The eluted proteins were further purified using FPLC Superdex 75 gel filtration in buffer containing 20 mM Tris-HCl pH 7.0, 100 mM NaCl, 5% glycerol and 2 mM DTT. The purity and quality of the purified proteins were assessed using SDS polyacrylamide gel electrophoresis (SDS-PAGE) and dynamic light scattering (DLS).

B1: PY12: LATS1 region PY12 (containing both PPxY motifs; aa 361-567) (protein)
chain: NVVPAGTVNRQPPPPYPLTAANGQSPSALQTGGSAAPSSYTNGSIPQSMMVPNRNSHNMELYNISVPGLQTNWPQSSSAPAQSSPSSGHEIPTWQPNIPVRSNSFNNPLGNRASHSANSQPSATTVTAITPAPIQQPVKSMRVLKPELQTALAPTHPSWIPQPIQTVQPSPFPEGTASNVTVMPPVAEAPNYQGPPPPYPKHLLHQN
modifications: left off: His-tag, end not stated, kept
Molecule B1 gave a Kd in assay [1] (ITC VP-ITC, 20 mM Tris-HCl pH 7.0, 100 mM NaCl, 3% glycerol, single ligand binding site model) of 9.6 µM. For the same molecule, in assay [1] (ITC, pH 7.0, 3% glycerol), the “-TΔS” value came to 33.4 kcal/mol, the ΔG is listed as -6.8 kcal/mol and the ΔH is listed as -40.2 kcal/mol. The complex formation entry in the assay on WW12 is recorded as “formed a tight complex”.
